Reference: a protein production outcome set (Wang et al. 2014)

Assay: label from the status in PepcDB records

Sequence | protein production
MLRTFVLMFFTSLSFIVAYYITFSPLILAEFSHALIDFLTIAFSIIAIKFIGENEVAEGRFSYGLHRLEVVVAMINLIIIILLSLAVAYTSVTSLFKETTNDSFTLIVSSALASFLTYFASPKERNDLGKKGLYMHILSDFLGYIMGFIIGILIFISGIRELDPVGAIILVILNFALSIPLLKEAFLIFMEGSSVKIDHIMEELTKISPSVHHLHVWSICDHVKVATLHVKVSPNLTIAEADKIRGSICDFLKEKYGISHVTVQFETNVDD | failed
MSRPPVFPPPQFPPPRPRPFQRTPPAIFPPILGLLALGLGLRRAAEIWGLPAGLAEAVLGATTGLGAFAVAAYAAKVAQRPGVVIEDLRVLPGRAGLAALVLGLLVLAAVLVPYGPAAARAVLVAGLGLQTILAVTVAALLLSGPKEGRVVTPAFHLHFVGFIIGGLTAAPVGWPGLGTVLLAVCAPVAAAIWIASLVQFLRRVPPPPLRPLLAIHLAPAALLGLVAGQQELPLVAQLCAAAGGVLLLAFLASARWLLAGGFSPLWGALTFPLAAYAGLLLVVWPQAGAVLLAAAALVIPPIAAKILQEWAKGRLAVRTNAAQA | failed
MKTGNLNPAPQQVTAPQNKARMDWPDIAKGISILGVVLLHVSLAIPGGQDTMMSHLNALLDPLRMPLFFMVSGFFAVKVLNQSFGELFRGRLWFYLVPYLLWTPVNLYLHRLEGTVFTGRAPGTWEWYSGSMLSATNMYWFLYFLVIFNLFLWATRKLPAWAIVALVASLWLLMPAYSEIEILRKSIIYLPTFLIGAYFRPLISRFAEAATRPKAIVFAAVLYVSGLALGVISNGLRDSENHGASVLWLMNLRDTFAHALGGNLTGFDMDHLPGMIIRIVSLPAGIVLCVWLGRIKPVGEFLKLIGRHTLPIYIGHATGLSLIFGFGLRWNFMEIDNFSDSLWHHTNTWMVIAFACAMLGGYLTYLISRVPVLGWTLVPPKLPEPDKTPAKAQADSHVKAQSAKPMNASTSSKTYGI | failed
MPSSSQYRRYQDPHHPSIPTPTTLFSQPSLEILGGGVAEELPELALCCDGTVVEGRSNCRCKARAVLPGGMRVRLSKTLAGILRHHPGRYGVRLTREGWARVSEVVEGLRKAGWSWVEEWHIVGVALHDPKGRYELRNGEIRARYGHSIPVNVEPLPGEPPPILYHGTTEEALPLIMERGIMRGRRLKVHLTSSLEDAVSTGRRHGNLVAVLLVDVECLRRRGLKVERMSKTVYTVDWVPPECIAEVRRESLGRSL | not failed
MDWEERENPKRLVKTFAFPNFREALDFANRVGALAERENHHPRLTVEWGRVTVEWWTHSAGGVTEKDREMARLTDALLQR | not failed
MVHTPLNFKFSEKREEWNLRFCRNVGVSIVELVTADASSAYVRGLMAVNGSKVYSILPFISIDAEKAKKAKFPEDRMSGVRGKVIPSVLPEIKGETILDIGCGFGTLTMELAKNNPESQVYGIDLHDSLTGQAEMNAEVLGLPNVEFRTGSAYALPFEKDSIDAVTCFLMLHHLEDIKFALFEIKRVLKKGGSLTAVEPLAHQHHHGPQLSEAEWKELFEEAGFGTETENMEGAVVLRAVKRELEHHHHHH | failed
MATDTTVQLRAGWQGRFYEDFAVGDVYKHPYGRTVTETDNVWFTNLTMNANPMHFNAAYASGTEFDERLVNGLFVIALSVGMSVVDVSANATANLGYDDIQHHAPVFHGDTLFAESEVLSKRESESRPHVGMVTTELRTYTQDGELVLSLERTPMVRKRGLEHHHHHH | not failed
MSLDSISLIKTPIEAELEDFKALFDTPLSDSNALLDSVITHIRKRNGKMMRPILVLLVARLYGAVTPATLHAAVSLELLHTASLVHDDVVDESTERRGQLSVNAIFNNKVSVLAGDYLLATSLVHAEQTNNYEIIRLVSSLGQKLAEGELLQLSNVSNHSFSEEVYFDVIRKKTAALFAACAEAAALSVQVGEEEVAFARLLGEYIGICFQIKDDIFDYFDSKKIGKPTGNDMLEGKLTLPALYALNTTKDAWAEQIAFKVKEGTATPDEIVRLIEFTKDNGGIEYACRTIEQYKKKAFDLLAALPDSNICLALRTYLDYVVAREKEGHHHHHH | not failed
METKCELNNTKKVANAFGLNEEDTNLLINAVDLDIKNNMQEISSELQQSEQSKQKQLGTTLQNLAKQNRIIK | failed
MSAHQGSETVTFGDSSAERPLGRSIMRGMANRCPACGSGRLFRAFLKPVDACAACGEEMHHHRSDDLPPYISIVIIGHIAVGGFMMTDMILNIPMWAHFAIWVPITILAALLTLQPIKGGVIGLQWALRMHGFDRKQPKVQIDGSSH | failed
MVLKAFFPTCCVSTDSGLLVGRWVPEQSSAVVLAVLHFPFIPIQVKQLLAQVRQASQVGVAVLGTWCHCRQEPEESLGRFLESLGAVFPHEPWLRLCRERGGTFWSCEATHRQAPTAPGAPGEDQVMLIFYDQRQVLLSQLHLPTVLPDRQAGATTASTGGLAAVFDTVARSEVLFRSDRFDEGPVRLSHWQSEGVEASILAELARRASGPICLLLASLLSLVSAVSACRVFKLWPLSFLGSKLSTCEQLRHRLEHLTLIFSTRKAENPAQLMRKANTVASVLLDVALGLMLLSWLHGRSRIGHLADALVPVADHVAEELQHLLQWLMGAPAGLKMNRALDQVLGRFFLYHIHLWISYIHLMSPFVEHILWHVGLSACLGLTVALSLLSDIIALLTFHIYCFYVYGARLYCLKIHGLSSLWRLFRGKKWNVLRQRVDSCSYDLDQLFIGTLLFTILLFLLPTTALYYLVFTLLRLLVVAVQGLIHLLVDLINSLPLYSLGLRLCRPYRLADKPTALQPRGAHLPPPQLWLPPQALLGRPVPQAVPWGAHLPLEAERGQAGLRELLARLAPPHGHSQPSALPGWHQLSWRMSCALWTLLCAPEHGRPCYHTLGLEVIGSEQMWGWPARLAALHHWHCLPWDPLPTCCGHHGGEHSNPRCPEHCPMPTLCTQVQRVRPPQQPQVEGWSPWGLPSGSALAVGVEGPCQDEPPSPRHPLAPSAEQHPASGGLKQSLTPVPSGPGPSLPEPHGVYLRMFPGEVAL | failed
MPGELLGAHYGHCFGCGEEQSHGLHLAARAGQGVSITAEFTVQPAHQGAPGLAHGGVLATALDETLGSLNWLLRTIAVTGRLETDFVRPVPVGTVLYLEAEVTAVAGRKIYSTATGRIGGPEGPVAVRADALFVEVKVDHFTDNGRQEEIRAAMNDPDQLRRARAFEVNPLEHHHHHH | failed
SEKYNSLSDFLKEFYIPTYVLSAETEEEEEEESRPTPASPVLVFINSKSGGQLGGELILTYRSLLNHNQVFDLDQETPDKVLRRIYLNLERLKDDDFARQIREKLKIIVAGGDGTAGWLLGVVCDLKLSHPPPIATVPLGTGNNLPFAFGWGKKNPGTDRTAVESFLEQVLKAKVMKIDNWHILMRMKTPKEGGSCDPVAPLELPHSLHAFHRVSPTDELNKEGCHTFRGGFWNYFSLGMDAQISYAFHSERKLHPEKFKNQLVNQSTYVKLGCTQGWFCASLFHPASRNIAQLAKVKIATRNGQWQDLHIPHSIRSIVCLNLPSFSGGLNPWGTPNPRKQRDRGLTPPFVDDGLIEVVGFRNAWHGLVLLAPNGHGTRLAQANRIRFEFHKGATDHTFMRMDGEPWKQPLPLDDETVMVEISHLGQVNMLATHDCRSRSVFDPSTPRHQDGAEDYDDNEDDSVAEGEEFRKFGAADTFKIPDEVDISQLS | failed
MGHHHHHHSHMQPAKEVTKASDGSLLGDLGHTPLSKKEGIKWQRPRLSRQALMRCCLVKWILSSTAPQGSDSSDSELELSTVRHQPEGLDQLQAQTKFTKKELQSLYRGFKNECPTGLVDEDTFKLIYAQFFPQGDATTYAHFLFNAFDADGNGAIHFEDFVVGLSILLRGTVHEKLKWAFNLYDINKDGYITKEEMLAIMKSIYDMMGRHTYPILREDAPAEHVERFFEKMDRNQDGVVTIEEFLEACQKDENIMSSMQLFENVI | failed
QERLKITALPLYFEGFLLIKRSGYREYEHYWTELRGTTLFFYTDKKSIIYVDKLDIVDLTCLTEQNSTEKNCAKFTLVLPKEEVQLKTENTESGEEWRGFILTVTELSVPQNVSLLPGQVIKLHEVLEREKKRRIE | not failed
QYRLRQLPEVSGAMVVMDPLTGRVLAMVGGFSFDQSQFNRATQAYRQPGSSFKPLVYSAAMDNGYTPSTVVIDAPIEIDQGQGVGVWRPENYSTGKYYGPTTLRNALQRSLNTVTVRLAQDIGMPLIGEYAKRFGVYDDLPNYLSYALGAGETTVMRMVTAYSMFANGGRRVKATLIDRIQDRYGHTIFKHDQRECRGCEAPNGWKNQPEPQLVDRREQVLDPMTAYQITSMMEGVVQAGTATVLREVGKPIAGKTGTTNDEKDAWFIGFSPDLVCGVYIGYDKPRNLGRGATGGHLAAPIAKDFFKLALAEKPAVPF | failed
